# Results as given in paper PMC2974754 (The Plant journal : for cell and molecular biology, 2010).
# Entries after “also recorded” stand apart in the source; their conditions may differ. Residues, ends and D or L forms follow the SMILES beside them. No end group written: not given here.
# T1: CLV1-GFP (transient expression in N. benthamiana) (Arabidopsis thaliana, UniProt Q9SYQ8 25-980)
# T1 sequence (looked up): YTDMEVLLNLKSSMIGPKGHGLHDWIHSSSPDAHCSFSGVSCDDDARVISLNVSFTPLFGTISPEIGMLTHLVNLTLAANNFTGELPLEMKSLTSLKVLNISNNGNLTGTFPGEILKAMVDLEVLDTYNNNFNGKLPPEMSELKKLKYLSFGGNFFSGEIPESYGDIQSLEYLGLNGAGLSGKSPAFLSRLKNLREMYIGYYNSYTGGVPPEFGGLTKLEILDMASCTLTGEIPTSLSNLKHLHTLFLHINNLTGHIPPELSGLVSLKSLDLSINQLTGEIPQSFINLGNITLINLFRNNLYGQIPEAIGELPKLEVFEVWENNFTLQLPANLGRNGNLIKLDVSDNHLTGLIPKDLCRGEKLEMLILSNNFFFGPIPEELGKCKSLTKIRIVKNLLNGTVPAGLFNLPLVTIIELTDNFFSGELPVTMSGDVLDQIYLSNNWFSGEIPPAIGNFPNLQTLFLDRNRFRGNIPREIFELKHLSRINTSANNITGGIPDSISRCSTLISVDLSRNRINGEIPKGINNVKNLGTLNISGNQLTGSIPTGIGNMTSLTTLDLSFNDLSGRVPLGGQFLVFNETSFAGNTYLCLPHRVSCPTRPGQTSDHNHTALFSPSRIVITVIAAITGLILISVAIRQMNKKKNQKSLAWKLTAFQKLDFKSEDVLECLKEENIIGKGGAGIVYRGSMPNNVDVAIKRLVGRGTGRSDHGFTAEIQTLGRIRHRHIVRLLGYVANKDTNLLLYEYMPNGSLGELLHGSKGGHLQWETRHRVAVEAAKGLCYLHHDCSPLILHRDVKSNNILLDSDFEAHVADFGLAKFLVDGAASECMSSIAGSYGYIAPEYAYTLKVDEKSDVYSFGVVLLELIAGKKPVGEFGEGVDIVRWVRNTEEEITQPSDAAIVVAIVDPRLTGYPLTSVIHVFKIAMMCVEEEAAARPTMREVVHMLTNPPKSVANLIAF
# T2: CRN-GFP (transient expression in N. benthamiana) (Arabidopsis thaliana, UniProt Q9LYU7 34-401)
# T2 sequence (looked up): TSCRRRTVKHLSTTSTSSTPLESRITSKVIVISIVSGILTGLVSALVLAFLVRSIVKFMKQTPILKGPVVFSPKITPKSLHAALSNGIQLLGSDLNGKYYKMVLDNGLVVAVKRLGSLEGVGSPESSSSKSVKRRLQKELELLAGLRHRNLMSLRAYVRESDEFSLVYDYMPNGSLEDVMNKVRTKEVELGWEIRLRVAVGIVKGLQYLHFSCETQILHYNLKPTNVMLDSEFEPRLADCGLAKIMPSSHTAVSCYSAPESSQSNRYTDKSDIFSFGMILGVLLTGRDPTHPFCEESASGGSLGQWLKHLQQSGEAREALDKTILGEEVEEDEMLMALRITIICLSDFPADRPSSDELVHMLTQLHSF
# T3: CLV1-FLAG (transient expression in N. benthamiana) (Arabidopsis thaliana, UniProt Q9SYQ8 25-980)
# T3 sequence (looked up): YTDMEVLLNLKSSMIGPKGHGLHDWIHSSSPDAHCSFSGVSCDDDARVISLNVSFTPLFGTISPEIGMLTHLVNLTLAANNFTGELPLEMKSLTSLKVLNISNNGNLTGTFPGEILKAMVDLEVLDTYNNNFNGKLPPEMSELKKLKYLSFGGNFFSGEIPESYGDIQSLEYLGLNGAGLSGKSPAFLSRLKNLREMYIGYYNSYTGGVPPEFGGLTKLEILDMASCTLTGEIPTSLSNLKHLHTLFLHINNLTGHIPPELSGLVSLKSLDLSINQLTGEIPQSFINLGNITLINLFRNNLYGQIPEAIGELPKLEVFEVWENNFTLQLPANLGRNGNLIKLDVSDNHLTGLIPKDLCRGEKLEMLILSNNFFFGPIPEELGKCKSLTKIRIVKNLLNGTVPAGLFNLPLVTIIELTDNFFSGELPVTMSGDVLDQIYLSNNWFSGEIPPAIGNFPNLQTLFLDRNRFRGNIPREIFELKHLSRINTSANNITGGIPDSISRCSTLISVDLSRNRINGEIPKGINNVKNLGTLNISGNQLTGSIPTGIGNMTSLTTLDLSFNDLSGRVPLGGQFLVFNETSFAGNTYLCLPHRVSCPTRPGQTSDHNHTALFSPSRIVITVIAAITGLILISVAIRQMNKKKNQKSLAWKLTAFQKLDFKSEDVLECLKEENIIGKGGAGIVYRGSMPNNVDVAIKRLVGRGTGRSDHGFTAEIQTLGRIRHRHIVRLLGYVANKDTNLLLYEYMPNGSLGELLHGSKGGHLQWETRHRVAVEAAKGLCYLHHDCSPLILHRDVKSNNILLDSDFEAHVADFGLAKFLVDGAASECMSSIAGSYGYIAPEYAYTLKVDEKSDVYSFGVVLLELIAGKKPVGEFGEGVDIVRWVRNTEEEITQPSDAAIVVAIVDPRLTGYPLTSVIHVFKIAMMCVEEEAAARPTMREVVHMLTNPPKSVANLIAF
# Experiments:
# [1] = stated in peptide description, no test or reference named; cited from earlier work
# [2] = tested on: Arabidopsis plants; details: synthetic peptides treating Arabidopsis plants; ref Kinoshita et al. 2007; cited from earlier work
# [3] = tested on: CLV1; details: cold competitor to radiolabeled CLV3 CLE; ref Kondo et al. 2008, Ogawa et al. 2008; cited from earlier work
# [4] = target: BAM2-GFP (transient expression in N. benthamiana) (Arabidopsis thaliana) (UniProt Q9M2Z1); assay: radioligand binding
# [5] = target: BAM1-GFP (transient expression in N. benthamiana) (Arabidopsis thaliana) (UniProt O49545); assay: radioligand binding
# BAM1-GFP (transient expression in N. benthamiana) (Arabidopsis thaliana), sequence (O49545 20-1003): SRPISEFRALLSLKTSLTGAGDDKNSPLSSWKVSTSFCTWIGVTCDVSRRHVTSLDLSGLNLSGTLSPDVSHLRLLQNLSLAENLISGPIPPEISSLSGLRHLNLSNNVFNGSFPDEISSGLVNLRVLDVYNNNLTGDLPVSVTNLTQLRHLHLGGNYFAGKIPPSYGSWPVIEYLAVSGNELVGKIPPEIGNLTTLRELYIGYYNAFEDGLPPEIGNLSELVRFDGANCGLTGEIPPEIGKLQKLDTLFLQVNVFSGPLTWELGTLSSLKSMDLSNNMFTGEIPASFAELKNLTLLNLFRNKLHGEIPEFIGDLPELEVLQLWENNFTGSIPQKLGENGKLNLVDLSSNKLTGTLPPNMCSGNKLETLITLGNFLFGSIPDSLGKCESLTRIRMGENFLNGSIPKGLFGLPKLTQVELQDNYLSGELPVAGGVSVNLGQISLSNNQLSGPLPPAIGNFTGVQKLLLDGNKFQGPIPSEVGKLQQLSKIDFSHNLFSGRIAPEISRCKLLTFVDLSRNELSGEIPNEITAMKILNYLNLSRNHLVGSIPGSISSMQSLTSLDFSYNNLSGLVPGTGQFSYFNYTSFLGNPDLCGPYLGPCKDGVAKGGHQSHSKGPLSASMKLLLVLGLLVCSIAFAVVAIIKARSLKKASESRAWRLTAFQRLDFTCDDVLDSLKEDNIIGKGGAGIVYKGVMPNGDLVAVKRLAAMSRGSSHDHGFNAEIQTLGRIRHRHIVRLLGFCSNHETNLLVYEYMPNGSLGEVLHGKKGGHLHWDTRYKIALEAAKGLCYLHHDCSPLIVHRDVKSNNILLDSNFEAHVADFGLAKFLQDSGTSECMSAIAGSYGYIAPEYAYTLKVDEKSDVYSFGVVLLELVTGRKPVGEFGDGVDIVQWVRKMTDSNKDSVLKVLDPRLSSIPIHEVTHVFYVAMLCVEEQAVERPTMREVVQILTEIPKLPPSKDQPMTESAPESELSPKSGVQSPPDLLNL
# [6] = target: CLV2-MYC (transient expression in N. benthamiana) (Arabidopsis thaliana) (UniProt O80809); assay: radioligand binding
# [7] = target: CLV1-GFP (transient expression in N. benthamiana) (Arabidopsis thaliana) (UniProt Q9SYQ8); assay: radioligand binding
# [8] = tested on: CLV1; details: truncated CLV1 LRR domain expressed in tobacco BY-2 cells; ref Ogawa et al. 2008; cited from earlier work
# [9] = target: T1, CLV1-GFP (transient expression in N. …); assay: co-IP
# [10] = target: T2, CRN-GFP (transient expression in N. …); assay: co-IP
# [11] = target: T3, CLV1-FLAG (transient expression in N. …); assay: co-IP
molecule,measurement,setting,value
"CLV3L: CLV3L (Arg70-Pro96) which includes the full CLV3 CLE domain plus the extended C-terminal tail and is partially functional (RTVPSGPDPLHHHVNPPRQPRNNFQLP; ends and bridges not checked; UniProt Q9XF04 70-96, looked up, fragment)",functionality of the peptide,[1],partially functional
"CLE25: CLE peptide (RKVPNGPDPIHN; ends and bridges not checked; UniProt Q8LFL4 58-69, looked up)",effect on size of the SAM,[2],caused reduced size of the SAM
CLV3S: CLV3S (Thr71-His81) which only contains a portion of the CLE domain and is nonfunctional (TVPSGPDPLHH; ends and bridges not checked),"competition of CLV3S at CLV1, previously reported",[3],unable to compete
same,functionality of the peptide,[1],nonfunctional
125I-radiolabeled CLV3 CLE peptide,Kd,[4],36 nM
same,Kd,[5],26 nM
same,Kd,[6],32 nM
same,Kd,[7],30 nM
CC(C)C[C@H](NC(=O)[C@@H]1CCCN1C(=O)[C@H](CC(=O)O)NC(=O)[C@@H]1CCCN1C(=O)CNC(=O)[C@H](CO)NC(=O)[C@@H]1CCCN1C(=O)[C@@H](NC(=O)[C@@H](NC(=O)[C@@H](N)CCCNC(=N)N)[C@@H](C)O)C(C)C)C(=O)N[C@@H](Cc1c[nH]cn1)C(=O)N[C@@H](Cc1c[nH]cn1)C(=O)O [CLV3 CLE] (H-RTVPSGPDPLHH-OH),binding to CLV1 (LRR / extracellular domain),[8],bind to the truncated CLV1 LRR domain; also recorded: binds to the CLV3 CLE peptide through its extracellular domain
"BAM2-FLAG (transient expression in N. benthamiana) (receptor, Arabidopsis thaliana, UniProt Q9M2Z1 23-1002, looked up) KPITELHALLSLKSSFTIDEHSPLLTSWNLSTTFCSWTGVTCDVSLRHVTSLDLSGLNLSGTLSSDVAHLPLLQNLSLAANQISGPIPPQISNLYELRHLNLSNNVFNGSFPDELSSGLVNLRVLDLYNNNLTGDLPVSLTNLTQLRHLHLGGNYFSGKIPATYGTWPVLEYLAVSGNELTGKIPPEIGNLTTLRELYIGYYNAFENGLPPEIGNLSELVRFDAANCGLTGEIPPEIGKLQKLDTLFLQVNAFTGTITQELGLISSLKSMDLSNNMFTGEIPTSFSQLKNLTLLNLFRNKLYGAIPEFIGEMPELEVLQLWENNFTGSIPQKLGENGRLVILDLSSNKLTGTLPPNMCSGNRLMTLITLGNFLFGSIPDSLGKCESLTRIRMGENFLNGSIPKELFGLPKLSQVELQDNYLTGELPISGGGVSGDLGQISLSNNQLSGSLPAAIGNLSGVQKLLLDGNKFSGSIPPEIGRLQQLSKLDFSHNLFSGRIAPEISRCKLLTFVDLSRNELSGDIPNELTGMKILNYLNLSRNHLVGSIPVTIASMQSLTSVDFSYNNLSGLVPSTGQFSYFNYTSFVGNSHLCGPYLGPCGKGTHQSHVKPLSATTKLLLVLGLLFCSMVFAIVAIIKARSLRNASEAKAWRLTAFQRLDFTCDDVLDSLKEDNIIGKGGAGIVYKGTMPKGDLVAVKRLATMSHGSSHDHGFNAEIQTLGRIRHRHIVRLLGFCSNHETNLLVYEYMPNGSLGEVLHGKKGGHLHWNTRYKIALEAAKGLCYLHHDCSPLIVHRDVKSNNILLDSNFEAHVADFGLAKFLQDSGTSECMSAIAGSYGYIAPEYAYTLKVDEKSDVYSFGVVLLELITGKKPVGEFGDGVDIVQWVRSMTDSNKDCVLKVIDLRLSSVPVHEVTHVFYVALLCVEEQAVERPTMREVVQILTEIPKIPLSKQQAAESDVTEKAPAINESSPDSGSPPDLLSN",percent co-immunoprecipitated,[9],10%
"CLV2-MYC (transient expression in N. benthamiana) (receptor, Arabidopsis thaliana, UniProt O80809 26-720, looked up) QLPDLDPQDKASLLIFRVSIHDLNRSLSTWYGSSCSNWTGLACQNPTGKVLSLTLSGLNLSSQIHPSLCKLSSLQSLDLSHNNFSGNIPSCFGSLRNLRTLNLSRNRFVGSIPATFVSLKELREVVLSENRDLGGVVPHWFGNFSMNLERVDFSFCSFVGELPESLLYLKSLKYLNLESNNMTGTLRDFQQPLVVLNLASNQFSGTLPCFYASRPSLSILNIAENSLVGGLPSCLGSLKELSHLNLSFNGFNYEISPRLMFSEKLVMLDLSHNGFSGRLPSRISETTEKLGLVLLDLSHNSFSGDIPLRITELKSLQALRLSHNLLTGDIPARIGNLTYLQVIDLSHNALTGSIPLNIVGCFQLLALMISNNNLSGEIQPELDALDSLKILDISNNHISGEIPLTLAGLKSLEIVDISSNNLSGNLNEAITKWSNLKYLSLARNKFSGTLPSWLFKFDKIQMIDYSSNRFSWFIPDDNLNSTRFKDFQTGGGEGFAEPPGKVEIKISAAVVAKDELSFSYNLLSMVGIDLSDNLLHGEIPEALFRQKNIEYLNLSYNFLEGQLPRLEKLPRLKALDLSHNSLSGQVIGNISAPPGLTLLNLSHNCFSGIITEKEGLGKFPGALAGNPELCVETPGSKCDPANIDASQEEIYQNELVEGPISIWIFCLSAFISFDFGVLGIFCSARARSYILQTKA",percent co-immunoprecipitated,[10],~20%
same,percent co-immunoprecipitated,[11],2.5%
